What was measured:
dsr3510ΔC-term = target: T1, dsr3510ΔC-term (Liquorilactobacillus nagelii, UniProt A0A3Q8CN51); assay: Michaelis-Menten fit, released fructose (D-fructose/D-glucose assay kit); assay type: biochemical; settings: pH 5.0, 30 °C, 0.05 M sodium acetate, 1 mM CaCl2; crude enzyme extract, 2500 µg/mL protein
T1 construct: gene BSQ50_03510
From the text: Michaelis-Menten fit, released fructose (D-fructose/D-glucose assay kit) on dsr3510ΔC-term

[1] = substrate: OC[C@H]1O[C@@](CO)(O[C@H]2O[C@H](CO)[C@@H](O)[C@H](O)[C@H]2O)[C@@H](O)[C@@H]1O; assay: as above; assay type: biochemical, Liquorilactobacillus nagelii; settings: pH 5.0, 30 °C, 0.05 M sodium acetate, 1 mM CaCl2, crude enzyme extract, 500 µg/mL protein
From the text: Michaelis-Menten fit, released fructose (D-fructose/D-glucose assay kit) on dsr3510 (full-length L. nagelii TMW 1.1827 dextransucrase)

Question: How did the Km (dsr3510ΔC-term) turn out when OC[C@H]1O[C@@](CO)(O[C@H]2O[C@H](CO)[C@@H](O)[C@H](O)[C@H]2O)[C@@H](O)[C@@H]1O [sucrose] was run?
Answer: The Km was 12.6 ± 0.73 mM.

B1: dsr3510 (full-length L. nagelii TMW 1.1827 dextransucrase) (Liquorilactobacillus nagelii) (protein)
chain: NVKISADSTPQNVVEQSSSSNDSSSNSSSSSKTSSSSKVNTDQVNEDTSSSITKENNISAMPKKQTQLTTATTAADKVTQTTDTSATTTAATNQQKNNQVESSSQSSSEQASSTISNNTTVSNTDSQQSSSQVANVTGGKYVDSNETWSYVDSQGNKIKGLNKVDGNLQYFDETSGAQIKGEYEKVGETTYYFDKNSGNAIPYTLTSDGKTTAYQADGQPAGAGFFTNQDGEIYYFDADGSYKTGLQTLNGTTYYFDSNGYLSKDTVENVDGKTYYSQADTGKTIQLTSQNLPTQTSTAKEVASFAAHNVAYSYDTKSFENINGYLTADSWYRPTYILNDGQLWIKSTSTDFRPLLMAWWPSKSIEADYLNYMIEQGIISSTRNFSANDDSLVLNSAAQNVQIALEKNLTMTGSVNWLRQIMQSFVKKEAIWNKTSEDPSSDGLSSLQGGFLTYQNSKLTPNANSDYRILGYVPSYIKNSNDKGSEFLLANDIDNSNPVVQAEELNWLYYLMNFGSITADDSSANFDGIRVDAVDNVDADLLKIAADYFKDAYQVNQNDQNADSHLSILEDWSNNDPQYVYDQGANQLTMDDYFVGQMNYSLENAPGSNSKMERFVQWYLINRANDSTEDTAIPNYTFVRAHDSNSQDQIQKAIQAATGGEYGVFTWEQLQQGLTLYYADQASTEKKYNRYNIPSAYAMLLTNKDTVPRVYYGDLYLEGGQYMANKTIYYDTITNLLASRVKYVAGGQTMSVDGNDVLTSVRFGKGAMTASDQGTSETRTEGVGVIVSNNTSLKLKDGDQVVLHMGVAHRNQAYRAAVLTTKDGIINYTSDDNAPIAYTDNNGDLVFTNQNLLINGVEEANTSIQGYANPDVTGYLAVWVPVGAATTQDARTAATTDSSTDGKTLHSNAALDSNVIYEGFSNFISYPDSHDDNTNVVIAKNTDLFKALGITSFELAPQYRTSGDKTFLDSTIDNGYAFTDRYDLGYGTPTKYGTVDDLRNVIKALHAAGIQAIADWVPDQIYNLPTEELVTVNRTDERGNQVASSKIHDLLYVANTIGGGDYQKKYGGAFLEVLETEYPDLFKEIQASTGKTIDPSQKITSWSAEYFNGTNILGRGSDYVLRSDDNQQYFYVGDDSSEVQKFLPASLVAENDRQKYSLGDQSANNYFVQENLNGKWYLIDPLNNQKQTGFQYIPDQIKTVYYNAQGEMQYGQQFLGGHWYLFDSRTGAMETGLQYIGNQHKTVYYNVQGQMQYGQQNVNGHWYLFDSKTGAMKTGWQYISNQHKTVYYNTQGQMQYGQQNVNGHWYLFDSKTGAMKTGWQYISDQHKTVYYNGQGQMQYGQQNVNGHWYLFDSKTGAMKTGWQYISNQHKTVYYNSQGQMVYGKQVIAGKTYYFDTKTGRKL
Question: Which Km [1] does the source give for B1 here?
Answer: The Km was 10.97 ± 1.56 mM.

Question: What about the Vmax [1] of the same molecule?
Answer: The Vmax was 200 µM/min.

From paper PMC8954249, “The C-Terminal Domain of Liquorilactobacillus nagelii Dextransucrase Mediates the Production of Larger Dextrans Compared to Liquorilactobacillus hordei” (Gels, 2022)
